From patent publication US20220193186A1, “METHOD OF TREATING AND PREVENTING BONE AND JOINT INFECTIONS” (CONTRAFECT CORPORATION, priority 2019, published 2022)
Positions count from the first letter of the chain named. Numbers in names are those of the source. ≈ marks a conversion by molar mass, not a printed value.

What was measured:
[1] = system: MRSA IDRL-6169 biofilm; assay: Minimum biofilm inhibitory and bactericidal concentrations; assay type: cell-based, Staphylococcus aureus; details: CF-301 testing with 0.5 mM DL-dithiothreitol and 25% horse serum
[2] = system: MRSA IDRL-6169; assay: MIC by broth microdilution; assay type: cell-based, Staphylococcus aureus; details: MRSA IDRL-6169, broth microdilution, CF-301 testing with 0.5 mM DL-dithiothreitol and 25% horse serum
[3] = Body weight of rats in osteomyelitis model (Example 6); assay type: in vivo, Sprague Dawley rats; details: mean; for Body weight on Day 1: time of surgery (before treatment); for Body weight on Day 8: immediately prior to treatment; for Body weight on Day 12: time of sacrifice, without or with DAP 60 mg/kg
Description: (§1) The following six treatment groups were identified: (1) control/no treatment (n=18); (2) 60 mg/kg daptomycin (DAP) administered subcutaneously twice daily for 4 days (n=17); (3) 40 mg/kg pp296 administered intravenously daily for 4 days (n=17); (4) 40 mg/kg pp296 administered intravenously daily for 4 days plus 60 mg/kg DAP administered subcutaneously twice daily for 4 days (n=17); (5) 100 mg/kg pp296 administered intravenously once as a single dose on treatment day 1 (n=17); and (6) 100 mg/kg pp296 administered intravenously once as a single dose on treatment day 1 plus 60 mg/kg DAP administered subcutaneously twice daily for 4 days (n=17). When daptomycin was administered together with pp296, it was given 15 minutes prior to pp296, which was maintained on ice.
Additionally, body weights of the animals were monitored as a marker of general health status during the study. The mean body weight of the animals at the time of surgery (day 1), immediately prior to treatment (day 8), and at the time of sacrifice (day 12) are shown below in Table 5.

[4] = system: MRSA IDRL-6169; assay: Acute MRSA osteomyelitis in rats, quantitative culture of tibia (Example 4); assay type: in vivo, Sprague Dawley rats; details: rat tibia, daptomycin 60 mg/kg i.p. every 12 hours for four days, CF-301 single dose 40 mg/kg tail vein; for mean (±SD) bacterial density: Day 12 (4 days after start of therapy); for reduction compared to untreated rats: Day 12
[5] = system: methicillin-resistant Staphylococcus aureus IDRL-6169; assay: Rat osteomyelitis model, quantitative culture of tibia (Example 6); assay type: in vivo, Sprague Dawley rats; details: for Mean log10 CFU/g / Median log10 CFU/g: rat tibia bone; for Mean log10 CFU/g reduction: vs no treatment
Description: Agents Chemother. 2019 Sep. 23; 63(10). Specifically, osteomyelitis was established in the rats by bending the knee joint, inserting a 21G needle into the tibial process, and injecting 10 μl […] and 50 μl of about 10^6-10^8 colony forming units (cfu) suspension of methicillin-resistant Staphylococcus aureus IDRL-6169.
as §1
Animals were sacrificed twelve hours after the last treatment was administered, and the tibia were collected, weighed, and cryopulverized for quantitative bacterial culture. The log10 CFU counts/g of tibia bone was determined using the Wilcoxon rank sum test, adjusted with a false discovery rate approach.

[6] = after a single dose of 10 mg/kg
[7] = system: multiple drug resistant (MDR) Staphylococcus epidermidis prosthetic knee infection; assay: CF-301 during arthroscopic DAIR in patients with prosthetic knee infection
[8] = system: S. aureus (MRSA strains MW2, ATCC BAA-42); assay: MIC by broth microdilution (CLSI) in caMHB-HSF and caMHB-HSD; assay type: cell-based
[9] = system: S. epidermidis isolate NRS6 biofilms; assay: Disruption of biofilms formed in human synovial fluid (fluorescent imaging); assay type: cell-based
Description: Macroscopic analysis of CF-301 activity on biofilms, which were formed in human synovial fluid, was performed in the manner described in Dastgheyb et al. (2015) JID 211:641-50 and Dastgheyb et al. (2015) AAC 59:e04579-14. Briefly, 10^8 CFUs of S. epidermidis isolate NRS6 were incubated for 24 hours at 37° C. in 24-well plates containing HSF. After biofilm formation, the wells were stained with ethidium bromide (EtBr) and treated with 0.1 or 1 μg/mL CF-301 for 2 hours. The biofilms were visualized by UV fluorescent imaging. Untreated controls were also examined.
The biofilms were also stained with Alexa Flour^488-WGA, which stained the exopolysaccharide in the biofilms (and individual bacteria) and propidium iodide (PI) which stained the entire biofilm. The biofilms were then visualized by fluorescence microscopy. As evidenced in FIG. 3, the S. epidermidis biofilms formed in HSF were eliminated after two hours of treatment with 0.1 ug/mL or 1 ug/mL CF-301.

[10] = system: S. epidermidis clinical isolates; assay: MIC by broth microdilution (CLSI) in caMHB-HSF and caMHB-HSD; assay type: cell-based; details: S. epidermidis (N = 53)
From the text: More particularly MIC values for a lysin may be determined against e.g., S. epidermidis or S. aureus in e.g., Mueller-Hinton broth (MHB) supplemented with physiological salt concentrations and synovial fluid, such as human synovial fluid. Minimum Inhibitory Concentrations (MICs) of a lysin against e.g., S. epidermidis may be determined using broth microdilution (BMD) following Clinical and Laboratory Standards Institute (CLSI) methodology (M07-A11, 2018, which is herein incorporated by reference in its entirety) in a non-standard medium (caMHB supplemented to 50% with human synovial fluid (caMHB-HSF)). See Examples.
Minimum Inhibitory Concentrations (MICs) of the CF-301 lysin (SEQ ID NO: 1) against S. epidermidis were determined using broth microdilution (BMD) following CLSI methodology (M07-A11, 2018) in a non-standard medium (caMHB supplemented to 25% with horse serum and 0.5 mM with DTT (caMHB-HSD)) approved for use by the CLSI in antimicrobial susceptibility testing with CF-301 (CLSI, AST Subcommittee Meeting, January, 2018). Activity of CF-301 against S. epidermidis in HSF (Discovery Life Sciences) was similarly determined using BMD in caMHB with 50% HSF (caMHB-HSF). The caMHB-HSF supports the growth and biofilm formation of S. epidermidis as well as S. aureus.

[11] = Pathological slides, rat osteomyelitis model (Example 6); assay type: in vivo, Sprague Dawley rats; details: rats, pp296 line: 40 mg/kg daily dosing (Treatment Group 3)
From the text: These findings are consistent with acute osteomyelitis, and no appreciable differentiation between groups could be made.

[12] = DAP 60 mg/kg s.c. twice daily for 4 days
[13] = CF-301 into the joint during arthroscopic DAIR, daptomycin, linezolid then suppressive tedizolid
[14] = caMHB-HSD (25% horse serum, 0.5 mM DTT)
[15] = caMHB-HSF (50% human synovial fluid)
[16] = groups pp296 40 mg/kg, without or with DAP
[17] = groups pp296 100 mg/kg, without or with DAP
[18] = pp296 40 mg/kg i.v. daily for 4 days (combination: plus DAP 60 mg/kg s.c. twice daily for 4 days)
[19] = pp296 100 mg/kg i.v. single dose on treatment day 1 (combination: plus DAP 60 mg/kg s.c. twice daily for 4 days)

## CCCCCCCCCC(=O)N[C@@H](Cc1c[nH]c2ccccc12)C(=O)N[C@H](CC(N)=O)C(=O)N[C@@H](CC(=O)O)C(=O)N[C@@H]1C(=O)NCC(=O)N[C@@H](CCCN)C(=O)N[C@@H](CC(=O)O)C(=O)N[C@H](C)C(=O)N[C@@H](CC(=O)O)C(=O)NCC(=O)N[C@H](CO)C(=O)N[C@@H]([C@H](C)CC(=O)O)C(=O)N[C@@H](CC(=O)c2ccccc2N)C(=O)O[C@@H]1C [daptomycin, reference compound]
[1]
  Minimum biofilm inhibitory concentration: 1 µg/mL
  minimum biofilm bactericidal concentration: 2 µg/mL
[2]; Staphylococcus aureus, read-out: minimum inhibitory concentration
  MIC: 0.5 µg/mL (≈ 0.309 µM)
[3]; group DAP 60 mg/kg
  Body weight on Day 1: 339 g
[4]
  mean (±SD) bacterial density: 4.09 (±0.37) log10 cfu/gram of bone
  reduction compared to untreated rats: 1.04 log10 cfu/gram of bone
[5]; [12]
  Mean log10 CFU/g: 4.29 log10 CFU/g
  Median log10 CFU/g: 4.79 log10 CFU/g
  Mean log10 CFU/g reduction: −1.14 log10 CFU/g

B1: CF-301: PlySs2 lysin of SEQ ID NO: 1, anti-staphylococcal lysin encoded within a prophage of the Streptococcus suis genome (protein, listed as Streptococcus suis)
chain: MTTVNEALNNVRAQVGSGVSVGNGECYALASWYERMISPDATVGLGAGVGWVSGAIGDTISAKNIGSSYNWQANGWTVSTSGPFKAGQIVTLGATPGNPYGHVVIVEAVDGDRLTILEQNYGGKRYPVRNYYSAASYRQQVVHYITPPGTVAQSAPNLAGSRSYRETGTMTVTVDALNVRRAPNTSGEIVAVYKRGESFDYDTVIIDVNGYVWVSYIGGSGKRNYVATGATKDGKRFGNAWGTFK
[6]
  Levels of CF-301 in bone relative to plasma levels: 10-15%
[1]
  Minimum biofilm inhibitory concentration: 1 µg/mL
  minimum biofilm bactericidal concentration: 4 µg/mL
[7]; [13]
  outcome after 1 year follow up in the two septic arthritis patients: favorable
  outcome at 6 months in the two patients with fistula at baseline: recurrence of the fistula
[7]; four patients, CF-301 (75 mg/mL; 30 mL) into the joint during arthroscopy, followed by antibiotics
  adverse events during arthroscopy: No adverse events
[2]
  minimum inhibitory concentration: 0.5 µg/mL
[8]; S. aureus strain ATCC BAA-42, caMHB-HSD
  CF-301 MIC: 0.5 µg/mL
[8]; S. aureus strain ATCC BAA-42, caMHB-HSF
  CF-301 MIC: 0.03 µg/mL
[8]; S. aureus strain MW2, caMHB-HSD
  CF-301 MIC: 0.5 µg/mL
[8]; S. aureus strain MW2, caMHB-HSF
  CF-301 MIC: 0.03 µg/mL
[9]; 0.1 or 1 μg/mL CF-301 for 2 hours, UV fluorescent imaging, FIG. 2
  ethidium bromide staining of biofilm structures formed by NRS6 in human synovial fluid: eliminated
[9]; two hours of treatment with 0.1 ug/mL or 1 ug/mL CF-301, FIG. 3
  S. epidermidis biofilms formed in HSF, Alexa Fluor 488-WGA / propidium iodide fluorescence microscopy: eliminated
[10]; [14]
  CF-301 MIC, MIC50: 0.5 µg/mL
  CF-301 MIC, MIC90: 0.5 µg/mL
  CF-301 MIC, Range: 0.25 to 2 µg/mL
[10]; [15]
  CF-301 MIC, MIC50: 0.015 µg/mL
  CF-301 MIC, MIC90: 0.125 µg/mL
  CF-301 MIC, Range: 0.0078 to 2 µg/mL
[4]
  mean (±SD) bacterial density: 4.65 (±0.65) log10 cfu/gram of bone
  reduction compared to untreated rats: 0.65 log10 cfu/gram of bone

B2: pp296: modified PlySs2 lysin, SEQ ID NO: 6; L92W, V104S, V128T and Y137S, Y164K, N184D, S198Q (protein)
chain: B1 chain with L92W, V104S, V128T, Y137S, Y164K, N184D, S198Q
[3]; [16]
  Body weight on Day 8: 313 g
  Body weight on Day 1: 342 g
[3]; [17]
  Body weight on Day 8: 312 g
  Body weight on Day 1: 344 g
[3]; pp296 40 mg/kg i.v. daily for 4 days
  Body weight on Day 12: 311 g
[3]; pp296 100 mg/kg i.v. single dose
  Body weight on Day 12: 312 g
[11]
  Pathological slides (marrow cellularity): only possible hypercellularity
[5]; [18]
  Mean log10 CFU/g: 4.94 log10 CFU/g
  Median log10 CFU/g: 5.27 log10 CFU/g
  Mean log10 CFU/g reduction: −0.49 log10 CFU/g
[5]; [19]
  Mean log10 CFU/g: 4.81 log10 CFU/g
  Median log10 CFU/g: 4.99 log10 CFU/g
  Mean log10 CFU/g reduction: −0.61 log10 CFU/g
